The text below walks through data of patent publication US20050112748A1 (published 2005).

The target of this experiment is T1, N-terminal portion of N-WASP (1st to 275th amino acid residues) fused to the Gal4 activation domain (pACT2) (UniProt Q95107 1-275).
T1 construct: range 1-275; Yeast two-hybrid prey; also called CRIB-motif-containing N-terminal portion of N-WASP; N-WASP CRIB motif
Briefly: yeast two-hybrid, beta-galactosidase colony-lift filter assay. From the text:
The cDNAs encoding the wild-type, constitutively active, and dominant-negative mutants of Cdc42, Tc10, and RhoT were ligated to the Gal4 DNA-binding domain of the pGBT9 vector (Clontech). A cDNA fragment encoding the N-terminal portion of N-WASP (corresponding to 1st to 275th amino acid residues) (EMBO J. 15: 5326-5335 (1996), Nature 391: 93-96 (1998)) was fused to the Gal4 activation domain of pACT2 vector (Clontech) The yeast strain Y190 was sequentially transformed with the bait and prey plasmids. Double transformants were selected on plates of minimal synthetic dropout medium lacking leucine and tryptophan (SD/-Leu/-Trp). The activation of lacz reporter gene was analyzed by β-galactosidase colony-lift filter assay.
Cdc42 generates filopodia through binding to the CRIB motif (J. Biol. Chem. 270: 29071-29074 (1995)) of its target protein N-WASP, which activates Arp2/3-complex- and profilin-mediated actin polymerization (EMBO J. 15: 5326-5335 (1996), Nature 391: 93-96 (1998), Cell 97: 221-231 (1999)). To determine whether Tc10 and RhoT also bound to N-WASP, the yeast two-hybrid interaction assay was performed.

T1 sequence (Q95107 1-275 limits assumed): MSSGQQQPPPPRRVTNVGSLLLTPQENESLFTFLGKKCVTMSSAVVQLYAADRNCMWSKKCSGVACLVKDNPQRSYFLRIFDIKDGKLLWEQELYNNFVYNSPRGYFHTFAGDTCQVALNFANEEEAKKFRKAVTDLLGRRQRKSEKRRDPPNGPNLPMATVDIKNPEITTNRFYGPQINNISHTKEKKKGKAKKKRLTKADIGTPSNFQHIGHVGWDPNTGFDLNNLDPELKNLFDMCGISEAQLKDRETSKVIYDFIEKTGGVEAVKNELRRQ

B1: Dominant-negative mouse RhoT(T35N) fused to the Gal4 DNA-binding domain (pGBT9) (enzyme, not shown: small tags and cut ends)
chain: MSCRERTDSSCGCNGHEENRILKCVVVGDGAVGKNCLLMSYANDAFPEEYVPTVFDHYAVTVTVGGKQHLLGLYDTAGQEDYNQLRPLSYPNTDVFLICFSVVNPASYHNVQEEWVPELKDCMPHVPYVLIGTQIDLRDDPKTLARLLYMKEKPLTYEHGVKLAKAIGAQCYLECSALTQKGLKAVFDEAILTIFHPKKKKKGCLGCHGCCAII
notes: Yeast two-hybrid bait; also called RhoT(T3SN); RhoT DN
As to B1, the binding result is reported as “no binding”.
